{
  "source": "patent US20210205413A1",
  "about": "(Nektar Therapeutics, priority 2018, published 2021)",
  "key": {"[1]": {"test": "Single dose pharmacokinetics in mice", "assay_type": "in vivo, C57BL/6 Mice"}, "Tregs in human PBMC": {"system": "Tregs in human PBMC", "test": "pSTAT5 induction in lymphocyte populations of human PBMC (flow cytometry, CyToF)", "assay_type": "cell-based", "details": "in vitro", "experimental": "Impaired IL-2 production and regulatory T cell dysfunctions have been implicated as an immunological mechanism in multiple autoimmune diseases. While low-dose IL-2 can be used to stimulate Tregs for clinical benefit, poor pharmacokinetics necessitates daily delivery, adverse events are dose-limiting, and Treg increases are modest and short-lived. […] The affinity to the IL-2 receptor is assessed by surface plasmon resonance. Activity in human PBMC can be measured by pSTAT5 induction in multiple lymphocyte populations using flow cytometry and time-of-flight mass cytometry (CyToF). In vivo activity after subcutaneous administration in C57BL/6 mice or cynomolgus monkey is measured by changes in lymphocyte numbers and activation by flow cytometry. Ex vivo Treg function is determined by the inhibition of Tcon proliferation by isolated splenic Treg. Efficacy is assessed in a model of systemic lupus erythematosus (SLE) using MRL/MpJ-Faslpr mice. […] In mice, a single administration leads to sustained Treg mobilization for 7-10 days in blood and spleen without Tcon activation, an effect concomitant with induction of Treg activation markers and increased ex vivo suppressive capacity. […] Finally, an RUR20kD-IL-2 composition is efficacious in mouse models of SLE."}, "[2]": {"system": "Balb/c mice (KLH DTH model)", "test": "Antigen dependent, T cell-mediated DTH model with KLH rechallenge", "assay_type": "in vivo", "experimental": "To develop the DTH model, Balb/c mice are sensitized with a subcutaneous administration of a model antigen keyhole limpet hemocyanin (KLH) emulsified in complete and incomplete Freund's adjuvant. […] Inflamed ears are subjected to immunohistochemistry (IHC) to quantify percent of FoxP3+ Treg cells post KLH challenge. The specificity of response is assessed after an additional 3-4 weeks with no treatment by either KLH rechallenge or conducting sensitization and challenge with an unrelated antigen ovalbumin (OVA). […] Post ten days of 2nd sensitization, mice are challenged with OVA eight times orally, every alternative day. […] Severity of allergic response is assessed by clinical scoring within 30-45 min of post 8th challenge. Further, serum mast cell protease 1 (MCPT 1) and OVA specific IgE titers are quantified. The percent Treg is determined by flow cytometry in peripheral blood and in spleen."}, "MRL/MpJ-Faslpr mice": {"system": "MRL/MpJ-Faslpr mice", "test": "Mouse model of systemic lupus erythematosus (SLE)", "assay_type": "in vivo", "experimental": "The MRL/MpJ-Faslpr mouse model develops an autoimmune disease that reflects pathologies of human SLE, including lymph node enlargement, increased IgG levels, antinuclear antibody production, proteinuria, and kidney failure caused by inflammation of the glomeruli. […] On dosing days, a suitable quantity of test article is withdrawn and diluted with vehicle to arrive at the desired dosing concentration (0.03 mg/kg dose and 0.3 mg/kg dose); dose volume was 5 mL/kg. Animals used for the study are MRL/MpJ-Faslpr mice and MRL/MpJ naive, female mice, aged from 6-8 weeks. Animals are assigned to treatment groups by randomization. Treatment groups are described in Table 13 below. 45 MRL/MpJ-Faslpr mice are randomized into 3 groups (15 each for Groups 2-4) based on body weight and level of protein content in urine before the commencement of the experiment. Animals in Groups 2-4 receive vehicle or test article delivered subcutaneously as described in Table 6. Group 1-MRL/MpJ mice receive the vehicle as a negative control. Three (3) days after the first dose administration on Week 8, 3 mice from Groups 2-4 are humanely sacrificed and blood samples were collected and processed. Body weights are measured twice a week from the commencement of the study and continued throughout. Skin lesion pictures were taken when first observed and then at one week intervals. Urine is obtained the day before dosing (at baseline) and then collected weekly thereafter. Protein levels in the urine are measured using a Siemens Clinitek Status Analyzer. On sacrifice day (3 days after the last dose at the end of Week 20), all mice are anesthetized by intraperitoneal injection of chloral hydrate (50 mg/kg). Blood samples are collected, and centrifuged at 10000 r/min for 10 min to obtain serum samples. The serum is stored at −80° C. until clinical biochemistry testing. Serum samples (100 μl) are analyzed for anti-dsDNA level by ELISA (Mouse Anti-dsDNA IgG-specific ELISA Kit, Alpha Diagnostic International, Cat. No. 5120) and the serum tested for BUN concentration using a Hitachi 7020 Automatic Biochemistry Analyzer. For lymphocyte analysis, blood samples are collected in EDTA-K tubes and tested for CD3/CD4/CD8/Treg/NK/B cell % by flow cytometry. […] This study further elucidates the effect of RUR-IL-2-induced Tregs on control of the physiological immune response and disease progression in a representative animal model of SLE."}, "Tregs": {"system": "Tregs", "test": "Single-dose PK/PD study in mice: Tregs in blood and spleen by flow cytometry", "assay_type": "in vivo, C57BL/6 mice", "text": "Following administration, blood and spleen samples are collected at days 1-7 and day 10 post administration. More particularly, at each time point, blood and spleen samples are collected; samples are pooled and assessed for pharmacodynamic analysis of drug action on lymphocyte cell populations by flow cytometry (see e.g. Example 5), expressed as a fold change relative to vehicle control. In addition to changes in cell numbers, functional markers and markers of activity are quantified. Finally, plasma drug concentration is also assessed."}, "[3]": {"details": "C57BL/6 mice, single SC 0.03 mg/kg, plasma"}, "[4]": {"details": "C57BL/6 mice, single SC 0.1 mg/kg, plasma"}, "[5]": {"details": "C57BL/6 mice, single SC 0.3 mg/kg, plasma"}, "[6]": {"details": "repeat administration over 12 weeks"}},
  "note": "Entries after “also recorded” stand apart in the source; their conditions may differ.",
  "data": [
    {"substance": "(1,3-bis(methoxypoly(ethylene glycol)10kDcarbamoyl)-2-propanoxy)-4-butanamide)interleukin-2) [RUR20kD-IL-2]", "values": [
      {"measurement": "AUCinf", "setting": "[1]; [3]", "result": 22900, "unit": "ng·h/mL"},
      {"measurement": "AUClast", "setting": "[1]; [3]", "result": 21500, "unit": "ng·h/mL"},
      {"measurement": "Cmax", "setting": "[1]; [3]", "result": 333, "unit": "ng/mL"},
      {"measurement": "Half-life", "setting": "[1]; [3]", "result": 53.8, "unit": "h"},
      {"measurement": "MRTinf", "setting": "[1]; [3]", "result": 83, "unit": "h"},
      {"measurement": "tmax", "setting": "[1]; [3]", "result": 7.92, "unit": "h"},
      {"measurement": "AUCinf", "setting": "[1]; [4]", "result": 102000, "unit": "ng·h/mL"},
      {"measurement": "AUClast", "setting": "[1]; [4]", "result": 97400, "unit": "ng·h/mL"},
      {"measurement": "Cmax", "setting": "[1]; [4]", "result": 1140, "unit": "ng/mL"},
      {"measurement": "Half-life", "setting": "[1]; [4]", "result": 53.8, "unit": "h"},
      {"measurement": "MRTinf", "setting": "[1]; [4]", "result": 81.4, "unit": "h"},
      {"measurement": "tmax", "setting": "[1]; [4]", "result": 7.92, "unit": "h"},
      {"measurement": "AUCinf", "setting": "[1]; [5]", "result": 245000, "unit": "ng·h/mL"},
      {"measurement": "AUClast", "setting": "[1]; [5]", "result": 238000, "unit": "ng·h/mL"},
      {"measurement": "Cmax", "setting": "[1]; [5]", "result": 3330, "unit": "ng/mL"},
      {"measurement": "Half-life", "setting": "[1]; [5]", "result": 44.4, "unit": "h"},
      {"measurement": "MRTinf", "setting": "[1]; [5]", "result": 71.5, "unit": "h"},
      {"measurement": "tmax", "setting": "[1]; [5]", "result": 24, "unit": "h"},
      {"measurement": "tmax", "setting": "[1]; mice, SC, range over doses", "result": "7.92 to 24", "unit": "h"},
      {"measurement": "half-lives", "setting": "[1]; mice, range over doses", "result": "1.85 to 2.24", "unit": "days"},
      {"measurement": "STAT5 phosphorylation in Tregs relative to other lymphocyte subsets", "setting": "Tregs in human PBMC", "result": "increased STAT5 phosphorylation relative to other lymphocyte subsets"},
      {"measurement": "inflammatory response to KLH rechallenge", "setting": "[2]; SC 0.003-0.3 mg/kg q3d, day 0 through day 8", "result": "suppressed the inflammatory response to KLH rechallenge in a dose dependent manner"},
      {"measurement": "FoxP3+ Treg cells in inflamed ears (IHC)", "setting": "[2]; post KLH challenge", "result": "significant infiltration of FoxP3+ Treg cells"},
      {"measurement": "durability and specificity of suppressive effect on inflammation", "setting": "[2]; re-challenge post 3-4 weeks without further administration, same and unrelated antigen (OVA)", "result": "durable and antigen-specific"},
      {"measurement": "protein levels in urine (biomarker of kidney damage)", "setting": "MRL/MpJ-Faslpr mice; 0.3 mg/kg s.c. twice weekly, week 8 to week 20", "result": "nearly the same levels as observed in normal mice"},
      {"measurement": "Treg elevation", "setting": "MRL/MpJ-Faslpr mice; [6]", "result": "sustains Treg elevation"},
      {"measurement": "blood urea nitrogen", "setting": "MRL/MpJ-Faslpr mice; [6]", "result": "reduces blood urea nitrogen"},
      {"measurement": "urine protein levels and kidney histopathology", "setting": "MRL/MpJ-Faslpr mice; [6]", "result": "returns urine protein levels and kidney histopathology to normal"},
      {"measurement": "time of peak increase in CD4+ Treg cell numbers", "setting": "Tregs; blood and spleen, single SC dose 0.03-0.3 mg/kg", "result": "four days following administration; also recorded: four days after administration"},
      {"measurement": "duration of sustained Treg mobilization", "setting": "Tregs; blood and spleen, single administration", "result": "7 to 10", "unit": "days"},
      {"measurement": "time until Treg levels return to baseline", "setting": "Tregs; single SC 0.3 mg/kg", "result": "7 to 10", "unit": "days"},
      {"measurement": "day ICOS expression returns to baseline", "setting": "Tregs; single SC dose", "result": "≤ 7", "unit": "days"},
      {"measurement": "day of peak ICOS expression on Treg", "setting": "Tregs; single SC dose", "result": 3, "unit": "days"},
      {"measurement": "percentage of proliferating (Ki67) Treg, duration", "setting": "Tregs; single SC dose", "result": "sustained through day 6"},
      {"measurement": "time of maximum of Treg activation markers (CD25 and Foxp3 MFI)", "setting": "Tregs; single SC dose, highest dose 0.3 mg/kg, 0.3 mg/kg", "result": "in the first two days following administration; also recorded: within the first two days following administration"}
    ]}
  ]
}
